Eight molecules from patent EP2014310A2 (Dyax Corporation, dated 2009) can be followed below.

Experiment [1] has as its target T1, KDR on transiently KDR-transfected 293H cells (human, UniProt P35968 20-1356).
T1 construct: whole, on cells; also called KDR-expressing cells
Briefly: displacement of 5.5 nM peptide/streptavidin-HRP complex from KDR-transfected 293H cells.

Experiment [2] deals with T2, human KDR-Fc fusion (R&D Systems #357-KD-050) (human, UniProt P35968 20-764).
T2 construct: bought
Nature of the experiment: fluorescence anisotropy, fluorescein-labeled peptide. Background: Fluorescence polarisation rises when a labelled molecule tumbles more slowly, as on binding a larger partner.

The target of experiment [3] is T3, KDR/VEGF complex (KDR-Fc mixed or saturated with VEGF) (human, UniProt P35968 20-764; P15692 27-191).
T3 construct: anisotropy: two fold molar excess of VEGF mixed with KDR-Fc; Biacore: KDR-Fc chip saturated with VEGF; also called KDR:VEGF165 complex
Nature of the experiment: fluorescence anisotropy, fluorescein-labeled peptide, KDR-Fc with two fold excess VEGF.

Experiment [4] deals with VEGF165 (Peprotech #100-20) (UniProt P15692-4 27-191). Briefly: fluorescence anisotropy, fluorescein-labeled peptide, VEGF alone.
For experiment [5], the target named is T2, human KDR-Fc fusion (R&D Systems …). Nature of the experiment: SPR.
For experiment [6] the target is unchanged. Nature of the experiment: Biacore, KDR-Fc on CM5 chip, unlabeled peptide.
Experiment [7] concerns the target KDR on transiently KDR-transfected 293H cells (human) (UniProt P35968). Nature of the experiment: competition with 300 pM 125I-VEGF on KDR-transfected 293H cells, peptide 0.3 µM.
Experiment [8] addresses KDR on human umbilical vein endothelial cells (HUVECs) (human, UniProt P35968 20-1356). Briefly: cell-based or functional assay.
The target in experiment [9] is KDR on transiently KDR-transfected 293H cells (human) (UniProt P35968). Briefly: competition with 300 pM 125I-VEGF on KDR-transfected 293H cells, peptide 30 µM.
In experiment [10] the target is T1, KDR on transiently KDR-transfected 293H …. Nature of the experiment: displacement of 5.5 nM streptavidin-HRP/binding peptide complex from KDR-transfected 293H cells.
The target in experiment [11] is T2, human KDR-Fc fusion (R&D Systems …). Briefly: Biacore steady state at the higher immobilization densities. On the technique in general: SPR reads the build-up and loss of mass on a sensor chip optically.
Experiment [12] has the same target. Briefly: Biacore steady state, KD1 of double rectangular hyperbola, KDR-Fc 3000RU.
Experiment [13] has the same target. Briefly: Biacore steady state, KD1 of double rectangular hyperbola, KDR-Fc 6000RU.
Experiment [14] has the same target. Briefly: Biacore steady state, KD1 of double rectangular hyperbola, KDR-Fc 1600RU.
Experiment [15] deals with human KDR-Fc fusion (R&D Systems #357-KD-050) (human) (UniProt P35968). Briefly: SPR, reference D2.
For experiment [16], the target named is T4, murine KDR-Fc fusion (R&D Systems #443-KD-050) (murine, UniProt P35918 20-762).
T4 construct: bought; also called recombinant murine KDR-Fc; rmKDR-Fc
Nature of the experiment: BIAcore, KD1 = kd1/ka1, murine KDR-Fc 2700RU.

The target of experiment [17] is T4, murine KDR-Fc fusion (R&D Systems …). Briefly: BIAcore, KD1 = kd1/ka1, murine KDR-Fc 5000RU.
Experiment [18] shares this target. Briefly: BIAcore, KD1 = kd1/ka1, fluorescein-labeled peptide, murine KDR-Fc 5000RU.
The target is the same in experiment [19]. Briefly: BIAcore, KD1 = kd1/ka1, fluorescein-labeled peptide, murine KDR-Fc 2700RU.

Bridge positions count the residues as written; N and C are the ends. Ends that are not written are not given here. I, II: the chains in the order shown. Where only a bound is given, the exact number is not on record here.

T4 sequence (P35918 20-762): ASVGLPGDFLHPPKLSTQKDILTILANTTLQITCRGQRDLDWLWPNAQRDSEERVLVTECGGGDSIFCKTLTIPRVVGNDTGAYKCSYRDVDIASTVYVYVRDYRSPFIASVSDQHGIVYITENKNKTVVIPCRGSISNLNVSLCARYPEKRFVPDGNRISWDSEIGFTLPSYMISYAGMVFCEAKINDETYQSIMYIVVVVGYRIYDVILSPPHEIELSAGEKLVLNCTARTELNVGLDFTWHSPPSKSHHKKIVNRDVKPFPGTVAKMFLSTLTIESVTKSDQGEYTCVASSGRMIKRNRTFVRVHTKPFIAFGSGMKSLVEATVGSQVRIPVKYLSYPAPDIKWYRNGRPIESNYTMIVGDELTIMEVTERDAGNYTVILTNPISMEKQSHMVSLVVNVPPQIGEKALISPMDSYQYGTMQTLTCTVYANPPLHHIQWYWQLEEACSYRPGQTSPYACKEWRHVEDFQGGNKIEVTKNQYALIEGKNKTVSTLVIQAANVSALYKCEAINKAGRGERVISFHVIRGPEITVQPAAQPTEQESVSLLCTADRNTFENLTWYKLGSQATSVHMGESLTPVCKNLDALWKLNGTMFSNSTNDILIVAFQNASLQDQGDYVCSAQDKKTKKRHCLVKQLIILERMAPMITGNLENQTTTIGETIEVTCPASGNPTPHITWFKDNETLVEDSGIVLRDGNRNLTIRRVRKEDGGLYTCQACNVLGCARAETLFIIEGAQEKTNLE
T2 sequence (P35968 20-764): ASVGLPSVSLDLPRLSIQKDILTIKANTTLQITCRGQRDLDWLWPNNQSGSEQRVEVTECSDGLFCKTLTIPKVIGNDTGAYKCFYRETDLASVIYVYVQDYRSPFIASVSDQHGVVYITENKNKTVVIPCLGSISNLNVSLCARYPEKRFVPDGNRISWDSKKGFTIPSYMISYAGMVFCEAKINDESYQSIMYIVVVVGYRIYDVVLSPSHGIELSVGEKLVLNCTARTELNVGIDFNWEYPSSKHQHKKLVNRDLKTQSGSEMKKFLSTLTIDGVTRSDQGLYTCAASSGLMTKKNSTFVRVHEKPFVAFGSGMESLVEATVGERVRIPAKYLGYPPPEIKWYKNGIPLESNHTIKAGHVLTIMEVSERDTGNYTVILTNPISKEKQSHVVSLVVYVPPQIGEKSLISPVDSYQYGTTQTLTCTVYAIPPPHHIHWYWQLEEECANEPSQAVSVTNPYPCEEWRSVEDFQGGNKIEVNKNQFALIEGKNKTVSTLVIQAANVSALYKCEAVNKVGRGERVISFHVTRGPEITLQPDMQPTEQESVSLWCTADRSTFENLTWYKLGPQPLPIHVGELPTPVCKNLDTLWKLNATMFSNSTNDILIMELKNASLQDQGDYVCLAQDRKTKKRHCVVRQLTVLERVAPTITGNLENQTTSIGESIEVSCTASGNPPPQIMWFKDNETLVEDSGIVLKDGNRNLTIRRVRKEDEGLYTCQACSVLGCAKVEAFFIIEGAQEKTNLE
Sequence of KDR on human umbilical vein endothelial cells (HUVECs) (P35968 20-1356): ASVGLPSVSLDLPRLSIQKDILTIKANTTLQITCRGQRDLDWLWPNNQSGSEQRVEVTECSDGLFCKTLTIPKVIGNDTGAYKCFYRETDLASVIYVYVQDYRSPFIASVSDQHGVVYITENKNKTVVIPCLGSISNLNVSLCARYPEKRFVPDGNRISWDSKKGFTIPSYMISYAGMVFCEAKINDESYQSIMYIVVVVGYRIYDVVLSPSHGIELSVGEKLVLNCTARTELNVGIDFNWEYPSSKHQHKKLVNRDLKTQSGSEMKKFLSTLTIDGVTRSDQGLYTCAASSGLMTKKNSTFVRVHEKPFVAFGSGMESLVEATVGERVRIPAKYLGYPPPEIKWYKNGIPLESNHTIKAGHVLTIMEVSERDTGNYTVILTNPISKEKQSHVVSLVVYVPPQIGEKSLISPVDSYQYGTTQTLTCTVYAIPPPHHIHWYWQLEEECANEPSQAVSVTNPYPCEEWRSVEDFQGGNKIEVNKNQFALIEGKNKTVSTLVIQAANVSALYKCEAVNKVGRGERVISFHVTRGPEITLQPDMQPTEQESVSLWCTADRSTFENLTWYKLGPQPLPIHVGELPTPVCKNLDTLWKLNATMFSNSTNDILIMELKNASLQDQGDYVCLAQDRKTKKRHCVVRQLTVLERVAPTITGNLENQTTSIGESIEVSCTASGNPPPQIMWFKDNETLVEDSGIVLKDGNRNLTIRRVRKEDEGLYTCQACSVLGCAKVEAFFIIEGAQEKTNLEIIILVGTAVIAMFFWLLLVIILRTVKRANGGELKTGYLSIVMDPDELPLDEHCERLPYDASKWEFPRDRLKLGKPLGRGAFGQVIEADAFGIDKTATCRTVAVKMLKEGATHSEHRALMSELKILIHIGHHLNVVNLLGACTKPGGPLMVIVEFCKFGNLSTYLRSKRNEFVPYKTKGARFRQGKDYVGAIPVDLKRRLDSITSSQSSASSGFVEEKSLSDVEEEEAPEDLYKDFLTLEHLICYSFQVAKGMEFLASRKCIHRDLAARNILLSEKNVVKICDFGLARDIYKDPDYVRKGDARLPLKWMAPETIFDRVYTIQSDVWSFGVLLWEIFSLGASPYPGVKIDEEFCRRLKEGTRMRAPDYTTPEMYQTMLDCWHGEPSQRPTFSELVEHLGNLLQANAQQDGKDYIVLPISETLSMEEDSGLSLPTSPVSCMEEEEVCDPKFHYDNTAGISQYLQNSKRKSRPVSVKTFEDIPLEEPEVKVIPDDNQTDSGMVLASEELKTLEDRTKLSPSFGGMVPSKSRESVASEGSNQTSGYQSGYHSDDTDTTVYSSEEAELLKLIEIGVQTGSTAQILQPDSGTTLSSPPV
T1 sequence (P35968 20-1356): as above
Sequence of KDR on transiently KDR-transfected 293H cells (human) (P35968 20-1356): as above
Sequence of human KDR-Fc fusion (R&D Systems #357-KD-050) (human) (P35968 20-764): as the sequence (P35968 20-764) above
T3 sequence (P35968 20-764, chain 1 of 2): as the sequence (P35968 20-764) above
T3 sequence (P15692 other isoform, or with tags, fused parts or gaps, chain 2 of 2): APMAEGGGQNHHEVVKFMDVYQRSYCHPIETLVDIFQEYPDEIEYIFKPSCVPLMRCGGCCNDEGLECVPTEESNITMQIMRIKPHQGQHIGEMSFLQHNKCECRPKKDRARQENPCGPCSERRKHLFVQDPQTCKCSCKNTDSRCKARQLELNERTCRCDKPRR
Sequence of VEGF165 (Peprotech #100-20) (P15692 other isoform, or with tags, fused parts or gaps limits assumed): as the sequence (P15692 other isoform, or with tags, fused parts or gaps, chain 2 of 2) above

In experiment [1], DWYYGGGK [SEQ ID NO:462, fragment of SEQ ID NO:356 (Asp-Trp-Tyr-Tyr motif with Gly-Gly-Gly-Lys)] registered a half-maximal inhibitory concentration (IC50) of 850 nM.

B1: SEQ ID NO:320 (peptide)
peptide: Ac-AGMPWCVEKDHWDCWWWGTGGGK-NH2
modifications: disulfide 6-14 (inferred); not fully specified; also: C-terminal Lys fluorescein-labeled in some assay forms
Take B1: the binding result in experiment [2] is listed as “no binding”. For the same molecule, the Kd in experiment [3] is 140 nM; in experiment [4], 10000 nM.

B2: tail-to-tail heterodimer comprising the polypeptides of SEQ ID NO:305 and SEQ ID NO:306 (peptide)
peptide 1: AQEPEGYAYWEVITLYHEEDGDGGK
peptide 2: AQAFPRFGGDDYWIQQYLRYTDGGK
modifications: not fully specified (bridges); also: tail-to-tail linker not given here
B2: the affinity in [5], expressed as Kd, was 11 nM.
Regarding Ac-GDSRVCWEDSWGGEVCFRYDPGGGK-NH2 (not fully specified; cysteine pairing not given here) [SEQ ID NO:294], in experiment [6], the dissociation constant (Kd) was 120 nM. Besides, the results for the % inhibition of 125I-labeled VEGF binding in [7] and in [9] were 52.3% and 96.3%, respectively. In addition, the “VEGF-induced KDR phosphorylation in HUVECs” value in experiment [8] is at least 50 % inhibition at 10 µM.
In experiment [10], Ac-AGPTWKEDDWYYEWLFGTGGGK-NH2 (lactam 6-13) [SEQ ID NO:454, lactam disulfide bridge replacement analog] yielded an IC50 of 108 nM.

B3: D6, peptide heterodimer composed of SEQ ID NO:277 and SEQ ID NO:294 (peptide)
peptide 1: AGPTWCEDDWYYCWLFGTGGGK
peptide 2: GDSRVCWEDSWGGEVCFRYDPGGGK
modifications: linker (positions not given here) via glutaric acid; disulfide I:6-I:13, II:6-II:16 (inferred); also: heterodimer joined by glutaric acid linker, attachment places not given here
notes: made with glutaric acid bis N-hydroxysuccinimidyl ester
As to B3, the dissociation constant Kd in experiment [11] was around 0.6 nM; in experiment [12], 25.5 nM; in experiment [13] it was 17 nM; in experiment [14], 46 nM. In experiment [8], the “IC50, VEGF-induced migration of HUVECs” value is around 12.5 nM.

B4: dimer 1 (D1) (peptide)
peptide 1: Ac-AGPTWCEDDWYYCWLFGTGGGK
peptide 2: Ac-VCWEDSWGGEVCFRYDPGGG
modifications: cysteine pairing not given here; also: heterodimer, C-terminal Lys joined through Biotin-JJK-glutaryl-JJ linker to the second peptide, amide, C-terminus joined to a lysine amide of the linker
B4 came in with a fold higher affinity than D2 in [15] of 10 fold. Besides, the dissociation constant (Kd) in experiment [16] stood at 17.5 nM; in experiment [17], 16 nM. Further, the “IC50, VEGF-induced phosphorylation of KDR in HUVECs” value in experiment [8] fell in the range of 0.5 to 1 nM.
In the case of Ac-AGPTWCEDDWYYCWLFGTGGGK-NH2 (disulfide 6-13 (inferred); not fully specified) [SEQ ID NO:277], the equilibrium dissociation constant (Kd) was found to be 33.6 nM in experiment [18] and 36.4 nM in experiment [19].

A word on the IC50: it is the concentration that gives 50% inhibition. One may read the Kd as the concentration at which binding is half-saturated. Low readings indicate tighter binding, high ones weaker binding.
